How the values were obtained:
peptide-T = molecular target: T1, peptide-T
T1 chain: ASTTTNYT

PAMP-12 = molecular target: T2, PAMP-12
T2 chain: FRKKWNKWALSR

B1: recombinant endo-α-N-acetylgalactosaminidase derived from Bifidobacterium longum JCM1217 (protein)
chain: MKKKKTISAALATALALTCMGSGGGTAFAVPLSDADLQTLASQIQQINDTSDSATASETPSAQADAVEGWTIDSNIAQGGEILEMANGWLHLKSTASNGNAAANPSSSNNWPAVAVWGTDYDFSKAGSFHATIKSPQEGSANRFGFYLGYNDPGSGLFIGYDSGGWFWQTYTGGGSGSWYSGARIAAPSANEEHDIRVSWTDAKVATLTVDGQKAFDVDYSAMTNLSNKLAIKAGSWKELNEVTDVYIKDFPEVVEAAKHAVSGKVVDAGGAAIEGATVRLDKTKVKTGADGTFSFADIEEGEHTLSIAKEGYEDVSQQVTVSGADLAIDPITLNKTVQVASETLKTKKMEVQIKKNFPSVLQYTMTDGKVMYGQSKDVRTVEINGTNIELGDDDVTFKKVSDTEATYTLKVKDEAKKIDAVITVQITVKANQLHLNVTKIKNNLSEGIPEGNGVEENAIQTLSFPNQSLVSVRSSQENAQFTGARMSSNTQKPGDTNFAVTEDTNVTDSDYTYGFISGAGLSAGLWSNSEHDGTYVAAPVRGGSQNTRVYATTQQTGDATSLGLASAPWYYHRTVTDSKGKKYTVAETALPQMAVAIAGDENEDGAVNWQDGAIAYRDIMNNPYKSEEVPELVAWRIAMNFGSQAQNPFLTTLDNVKKVALNTDGLGQSVLLKGYGNEGHDSGHPDYGDIGQRLGGADDMNTMMEEGSKYGARFGVHVNASEMYPEAKAFSEDMVRRNSAGGLSYGWNWLDQGVGIDGIYDLASGSRVSRFADLSKEVGDNMDFIYLDVWGNLTSSGSEDSWETRKMSKMINDNGWRMTTEWGSGNEYDSTFQHWAADLTYGGYTSKGENSEVMRFLRNHQKDSWVGDYPQYGGAANAPLLGGYNMKDFEGWQGRNDYAAYIKNLYTHDVSTKFIQHFKVTRWVNNPLLTADNGNAAAVSDPNTNNGNEQITLKDSNGNVVVVSRGSNDTSSAAYRQRTITFNGVKVASGVVSAGDGSATGDESYLLPWMWDSFTGKLVKDSEQKLYHWNTKGGTTTWTLPDSWKNLSSVKVYQLTDQGKTNEQTVAVSGGKVTLTADAETPYVVYKGEAKQIQVNWSEGMHVVDAGFNGGSNTLTDNWTVSGSGKAEVEGDNNAMLRLTGKVDVSQRLTDLKAGQKYALYVGVDNRSTGDASVTVTSGGKVLATNSTGKSIAKNYIKAYGHNTNSNTENGSSYFQNMYVFFTAPENGDATVTLSHKSTDGAHTYFDDVRIVENQYSGITYEKDGTLKSLTNGFENNAQGIWPFVVSGSEGVEDNRIHLSELHAPFTRAGWDVKKMDDVLDGTWSVKVNGLTQKGTLVYQTIPQNVKFEAGAKYKVSFDYQSGSDDIYAIAVGQGEYSAGSVKLTNLKKALGETGKAEFELTGGVNGDSWFGIYSTATAPDLQGSTGNAQDFGGYKDFVLDNLKIERIESQTRTKAEAQDKVKEIRGKYDSKRAELSDAAWQQYQDTLVKARVLINKNGATAEDFTKAYDILVALDEYMKTAPGNESSDKYDVAADGSDELGGYTVATGSEEPTAGLPSEGPADLAQDGNDSTHWHTSWSENAVGNGTAWYQFNLNEPTTINGLRYLPRSGGMNANGKIKGYKITLTLADGTTKDVVTDAEFSTTTMWQKASFDAVENVTAVRSTVLSSAGQSDSQANKFASAAELRLTTDREVEEETVAPDKTDLNDTIAKANGLKESDYTAESWTALVKAREAAQAVADNDKATAYDVALALTNLESAIAGLEKTGEEPGPGPVEVNKTDLQTAVNKASKLEKADYTTNSWEAFAEALKAAQQVLDNKNATQQDVDTALSALQDAISKLEAATEPKPNPEPGVVDKAALNATINKAAAINLGLYTDDSANALRAALKKAREVSDNSNATQKQVDAAREALEKAIAALVKRPAAKGDGNVVSNTGSDVATIALAGLLLAGAGAAIAYRRNREQL
transglycosylation activity (HPLC product peak; confirmed by MALDI-TOF-MS) (peptide-T): it was demonstrated that the sugar chain was transferred to each peptide because peaks of transglycosylation products ("product" portion in each Figure) were observed | transglycosylation activity (HPLC product peak; confirmed by MALDI-TOF-MS) (bradykinin): it was demonstrated that the sugar chain was transferred to each peptide because peaks of transglycosylation products ("product" portion in each Figure) were observed | transglycosylation activity (HPLC product peak; confirmed by MALDI-TOF-MS) (PAMP-12): it was demonstrated that the sugar chain was transferred to each peptide because peaks of transglycosylation products ("product" portion in each Figure) were observed

Reference: US20060223140
